Measurements: patent publication US20250334594A1 (ELEDON PHARMACEUTICALS, published 2025)

B1: recombinant human CD40L protein (Santa Cruz Biotechnology) (ligand, UniProt P29965 113-261, looked up)
chain: MQKGDQNPQIAAHVISEASSKTTSVLQWAEKGYYTMSNNLVTLENGKQLTVKRQGLYYIYAQVTFCSNREASSQAPFIASLCLKSPGRFERILLRAANTHSSAKPCGQQSIHLGGVFELQPGASVFVNVTDPSQVSHGTGFTSFGLLKL
notes: Bought reagent; also called CD154

Key:
[1] = target: recombinant human FcγRI (human) (UniProt P12314); assay: ELISA: antibody coated (2 µg/ml), recombinant human FcγRI titrated, mouse anti-CD64 + HRP anti-mouse IgG, A450
Sequence of recombinant human FcγRI (human) (P12314 16-288 limits assumed): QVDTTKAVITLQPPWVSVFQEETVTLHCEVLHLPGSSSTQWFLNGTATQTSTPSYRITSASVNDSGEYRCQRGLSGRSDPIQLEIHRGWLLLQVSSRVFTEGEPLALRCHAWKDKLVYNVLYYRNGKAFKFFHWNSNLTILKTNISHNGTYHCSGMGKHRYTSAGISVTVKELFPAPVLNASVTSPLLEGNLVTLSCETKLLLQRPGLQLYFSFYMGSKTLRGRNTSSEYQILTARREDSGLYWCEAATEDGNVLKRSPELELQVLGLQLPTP

[2] = target: control protein CTLA4-IgG1 (UniProt P16410 38-161, limits assumed); assay: sandwich ELISA: protein coated (2 µg/ml), huCD40L titrated, biotinylated goat anti-CD40L polyclonal + streptavidin-HRP, A450
Sequence of control protein CTLA4-IgG1 (P16410 other isoform, or with tags, fused parts or gaps limits assumed): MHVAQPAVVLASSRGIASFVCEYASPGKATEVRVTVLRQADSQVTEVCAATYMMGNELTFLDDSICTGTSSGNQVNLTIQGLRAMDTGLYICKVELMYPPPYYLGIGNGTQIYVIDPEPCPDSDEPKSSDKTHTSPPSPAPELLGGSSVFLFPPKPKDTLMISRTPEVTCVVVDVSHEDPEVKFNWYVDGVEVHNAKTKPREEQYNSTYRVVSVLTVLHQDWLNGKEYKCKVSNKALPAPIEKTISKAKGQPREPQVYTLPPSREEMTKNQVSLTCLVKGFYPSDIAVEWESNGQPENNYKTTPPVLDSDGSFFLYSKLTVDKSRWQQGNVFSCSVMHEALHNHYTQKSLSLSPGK
Procedure: All washes were performed using 3 washes of 250 μl of PBS. […] The plate was washed and then blocked with 2% bovine serum albumin/PBS for 1 hour at room temperature. The plate was washed and recombinant human CD40L protein (Santa Cruz Biotechnology, Santa Cruz, California, USA) was added to the plate titrated out by 2-fold dilution starting at 2000 ng/ml. After binding and washing, the bound CD40L protein was detected using 100 μl a biotinylated goat anti-human CD40L polyclonal antibody (200 ng/ml) and 100 μl a streptavidin-horseradish peroxidase conjugate at 100 ng/ml. Colorimetric detection was performed with the chromagen TMB (3,3′,5,5′-tetramethylbenzidine) and spectrophotometric analysis of absorption at 450 nm.

| Molecule | EC50 (read off the curve) [1] | binding result [2] |
| --- | --- | --- |
| anti-CD40L antibody 5c8 (reference antibody) | 0.2 µg/mL | – |
| B1 | – | no binding (tested: 2 micrograms/mL) |
